Data as given in patent US20030118557A1, “Axon repair” (priority 2001, published 2003).

B1: CAP-23: growth cone protein; chicken CAP-23 transgene expressed in mouse neurons under Thy-1 promoter (protein, UniProt P23614 2-244, looked up)
Brain acid soluble protein 1 …: GGKLSKKKKGYSVNDEKAKDKDKKAEGAATEEEETPKEAEDAQQTTETTEVKENNKEEKVEKDAQVSANKTEEKEGEKEKTVTQEEAQKAEPEKSEAVVDAKVEPQKNNEQAPKQEEPAAASAPAASSEAPKTSEPSSDAKASQPSEATAPSKADDKSKEEGEAKKTEAPATPAAQETKSEVAPASDSKPSSSEAAPSSKETVAATAAPSSTAKASDPSAPPEEAKPSEAPATNSDQTIAVQD
modifications: transgene in mouse neurons
notes: growth cone protein; chicken CAP-23 transgene expressed in mouse neurons under Thy-1 promoter
B2: GAP-43: growth-associated growth cone protein; chicken GAP-43 transgene expressed in mouse neurons under Thy-1 promoter (protein, UniProt P35001 1-246, looked up)
Neuromodulin: MLCCMRRTKQVEKNEDGDQKIEQDGIKPEDKAHKAATKIQASFRGHITRKKLKGEKKADAPASESEAADKKDEGPAGGAAENKESEASAATEASAADSAQLDEGSKDSSVPAEEKKGNGAADTGSEQPAPQAATPAASSEEKPAAAAETESATKASTDNSPSLKADEAQDKEEPKQADVPAADTTATTTPAAEDATAKATAQPQMETVESSQTEEKTDAVEETKPTESAQQEEVKEEESKADQENA
modifications: transgene in mouse neurons
notes: growth-associated growth cone protein; chicken GAP-43 transgene expressed in mouse neurons under Thy-1 promoter

Test system: dorsal root ganglion (DRG) neurons
Assay: short-term in vitro axon outgrowth assay with adult DRG neurons from transgenic mice
Format: cell-based
Conditions: for propensity / number of adult DRG neurons that extended axons: acute outgrowth assay, naive neurons; for extension of long (>300 μm) axons: naive adult DRG neurons from transgenic mice, short-term culture
Procedure: For the in vitro analysis, dorsal root ganglion (DRG) neurons from adult mice (>8 weeks) were dissociated essentially as described (Smith et al, J. Neurosci. 17:646-658 (1997)), and centrifuged at 200×g for 10 minutes through a cushion of 10% Ficoll in F14 culture medium to remove myelinated axons, cellular debris and non-neuronal cells. Neurons were resuspended in serum-free F14 medium containing N1 supplements, and plated on polylysine/laminin coated glass coverslips as described (Smith et al, J. Neurosci. 17:646-658 (1997)). Cells from 12-14 ganglia were plated in 12 wells of a standard 24-well plate. After 18-24 hours, cultures were fixed in 4% paraformaldehyde for 30 minutes at room temperature, washed and stained with antibodies to detect neurons expressing chicken CAP-23 (monoclonal antibody 15C1) and chicken GAP-43 (rabbit polyclonal antibody) (Caroni et al, J. Cell Biol. 136:679-692 (1997), Aigner et al, Cell 83:269-278 (1995)). To visualize all neuronal processes, cultures were stained with antibodies to β III tubulin (MAB 1637; Chemicon, Temecula, Calif.). Cells were viewed with a CCD camera and analyzed with IPLab 3.2 for the Macintosh (Scanalytics, Inc., Fairfax, Va.). Only neurons that stained strongly for the appropriate transgene(s) were analyzed. In control cultures, cells that stained strongly for the neuron-specific β III tubulin were analyzed. Cells with processes greater than 2 cell body diameters were scored. The length of the longest process for each cell, and the number of branches formed along that process, were then measured.
To identify genes responsible for the onset of axon regeneration, a short-term in vitro assay was used that monitors a transcription-dependent switch in axon extension induced in DRG neurons by axon injury (Smith et al, J. Neurosci. 17:646-658 (1997)). Neurons are removed from adult animals and cultured for 18-24 hours (Smith et al, J. Neurosci. 17:646-658 (1997)). Because the neurons are axotomized during this removal, they will eventually respond by inducing the full complement of growth-associated genes (Smith et al, J. Neurosci. 17:646-658 (1997)). Over the first 24 hours in culture, however, axon outgrowth depends only on genes that were already expressed in the neurons at the time of their removal from the animal (Smith et al, J. Neurosci. 17:646-658 (1997)). Neurons isolated from adult mice with no prior manipulation (naive neurons) supported a limited amount of outgrowth (Smith et al, J. Neurosci. 17:646-658 (1997)) and FIG. 1), characterized by the emergence of relatively short and highly branched axons (FIGS. 2 and 3). In contrast, neurons that had responded to a peripheral nerve lesion several days before removal were much more likely to extend axons (FIG. 1), and those axons were long and sparsely branched (FIGS. 2 and 3). This “elongating” growth resembles the extension required for nerve regeneration in vivo, and reflects the expression of genes induced by peripheral nerve injury (Smith et al, J. Neurosci. 17:646-658 (1997)).

| Molecule | propensity / number of adult DRG neurons that extended axons | extension of long (>300 μm) axons | modal length of axons (naive adult DRG neurons, persistent transgene expression, 18-24 hours in culture) |
| --- | --- | --- | --- |
| B1 | increased the number | did not elicit extension of long axons |  |
| B2 | increased the propensity | Only a small fraction | 100-150 μm |
